The values below come from article PMC11813165.

The target in assay [1] is NiV (Bangladesh strain) L (full-length, with C-terminal triple strep tag) (Nipah virus (Bangladesh strain)) (UniProt Q997F0). The experiment in a line: mass photometry.
For assay [2] the target is unchanged. The assay can be described thus: mass photometry. This is another data set of the same source.

Where two headings read alike, the source gives them in different places.

In general, stoichiometry N refers to a count of units in the complex or per binding partner. For “NiV (Bangladesh strain) P (full-length, with N-terminal polyhistidine tag) (from UniProt Q4VCQ1 1-709) (natural protein)”, the stoichiometry N was determined as 4 in assay [1] and 3 in assay [2].
